For the assay, the target named is 4-1BB-Fc (human, UniProt Q07011). The assay can be described thus: BLI, 24C, avidity.
4-1BB-Fc, sequence (Q07011 24-186): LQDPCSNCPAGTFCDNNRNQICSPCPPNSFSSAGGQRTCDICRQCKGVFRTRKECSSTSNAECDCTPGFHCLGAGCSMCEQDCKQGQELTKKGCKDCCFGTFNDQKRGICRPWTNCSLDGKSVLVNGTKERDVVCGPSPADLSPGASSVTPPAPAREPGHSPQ

B1: D2 (4-1BBL trimer-Fc) (protein)
chain: KEITNALETWGALGQDINLDIPSFQMSDDIDDIKWEKTSDKKKIAQFRKEKETFKEKDTYKLFKNGTLKIKHLKTDDQDIYKVSIYDTKGKNVLEKIFDLKIQERVSKPKISWTCINTTLTCEVMNGTDPELNLYQDGKHLKLSQRVITHKWTTSLSAKFKCTAGNKVSKESSVEPVSCPEKGLDIYLIIGICGGGSLLMVFVALLVFYITKRKKQRSRRNDEELETRAHRVATEERGRKPHQIPASTPQNPATSQHPPPPPGHRSQAPSHRPPPPGHRVQHQPQKRPPAPSGTQVHQQKGPPLPRPRVQPKPPHGAAENSLSPSSN
B1 yielded a Kd of 0.02 nM.

The values above are taken from patent US20260347469 (published 2026).
